The labels stand for the following.
B1: KIR2DL5B*003 allele expressed on 3T3 cells (receptor)
chain: HEGGQDKPLLSAWPSAVVPRGGHVTLLCRSRLGFTIFSLYKEDGVPVPELYNKIFWKSILMGPVTPAHAGTYRCRGSHPRSPIEWSAPSNPLVIMVTGLFGKPSLSAQPGPTVRTGENVTLSCSSRSSFDMYHLSREGRAHEPRLPAVPSVNGTFQADFPLGPATHGGTYTCFGSLHDSPYEWSDPSDPLLVSVTGNSSSSSSSPTEPSSKTGIRRHLHILIGTSVAIILFIILFFFLLHCCCSNKKNAAVMDQEPAGDRTVNREDSDDQDPQEVTYAQLDHCVFTQTKITSPSQRPKTPPTDTTMYMELPNAKPRSLSPAHKHHSQALRGSSRETTALSQNRVASSHVPAAGI
B2: CD112-Ig fusion protein (Fc fusion, UniProt Q92692 32-360, looked up)
chain: QDVRVQVLPEVRGQLGGTVELPCHLLPPVPGLYISLVTWQRPDAPANHQNVAAFHPKMGPSFPSPKPGSERLSFVSAKQSTGQDTEAELQDATLALHGLTVEDEGNYTCEFATFPKGSVRGMTWLRVIAKPKNQAEAQKVTFSQDPTTVALCISKEGRPPARISWLSSLDWEAKETQVSGTLAGTVTVTSRFTLVPSGRADGVTVTCKVEHESFEEPALIPVTLSVRYPPEVSISGYDDNWYLGRTDATLSCDVRSNPEPTGYDWSTTSGTFPTSAVAQGSQLVIHAVDSLFNTTFVCTVTNAVGMGRAEQVIFVRETPNTAGAGATGG
notes: Bought (R&D Systems); also called nectin-2; not shown: Ig part, detected with anti-human IgG Fc
B3: PVR-Ig fusion protein (Fc fusion, UniProt P15151 27-343, looked up)
chain: GDVVVQAPTQVPGFLGDSVTLPCYLQVPNMEVTHVSQLTWARHGESGSMAVFHQTQGPSYSESKRLEFVAARLGAELRNASLRMFGLRVEDEGNYTCLFVTFPQGSRSVDIWLRVLAKPQNTAEVQKVQLTGEPVPMARCVSTGGRPPAQITWHSDLGGMPNTSQVPGFLSGTVTVTSLWILVPSSQVDGKNVTCKVEHESFEKPQLLTVNLTVYYPPEVSISGYDNNWYLGQNEATLTCDARSNPEPTGYNWSTTMGPLPPFAVAQGAQLLIRPVDKPINTTLICNVTNALGARQAELTVQVKEGPPSEHSGISRN
notes: Bought (R&D Systems); also called PVR-Ig protein; not shown: Ig part, detected with anti-human IgG Fc

For the assay “PVR-Ig fusion protein”, the target named is B3. Description: flow cytometry, PVR-Ig on 3T3 cells expressing KIR2DL5 alleles. How it is done:
(§1) FIG. 10A-E: Allelic polymorphism affected PVR binding of KIR2DL5. (A) Flow cytometric analysis of PVR-Ig or CD112-Ig (open) or control hIg (shaded) binding to KIR2DL5/3T3. (B) Flow cytometric analysis of PVR-Ig binding to KIR2DL5/3T3 in the presence of increasing concentrations of F8B30. (C) KIR2DL5 bound to different sites of PVR from other receptors. PVR-Ig protein was preincubated with indicated His-tagged protein and then stained KIR2DL5/3T3 cells. […] (D) Flow cytometric analysis of PVR-Ig (open) or control hIg (shaded) binding on 3T3 cells expressing WT, DO-deleted, or D2-deleted KIR2DL5. Parental 3T3 cells were used as a negative control. (E) Flow cytometric analysis of PVR-Ig or control hIg (shaded) binding on 3T3 cells expressing different KIR2DL5 alleles. In A-E, data are representative of 2 independent experiments.
(§2) Fusion protein cell binding assays. PVR-Ig, CD112-Ig, or hIgG (R&D Systems) was incubated with corresponding 3T3 cells on ice for 45 minutes, followed by incubation with APC- or PE-conjugated anti-human IgG Fc antibody (1:100; clone HP6017, BioLegend) on ice for 30 minutes. Cells were then acquired on an LSR II flow cytometer (BD Biosciences). In the anti-KIR2DL5 mAb blocking assay, KIR2DL5/3T3 cells were preincubated with a serial concentration of anti-KIR2DL5 mAb F8B30 or mIgG1 on ice for 30 minutes. […]
A general note: A flow cytometer gives signals particle by particle.

The target in assay [1] is T1, KIR2DL5 wild type (KIR2DL5A*001) expressed on cells (human, UniProt Q8N109 22-375).
T1 construct: UniProtKB Q8N109 and NP_065396.1 are printed for this entry; In the SHP-1/SHP-2 co-immunoprecipitation the cells were treated with pervanadate and the receptor was tyrosine-phosphorylated; also called KIR2DL5/3T3; WT KIR2DL5
Description: flow cytometry, fusion protein on KIR2DL5/3T3, anti-human IgG Fc detection. How it is done: PVR-Ig protein was preincubated with indicated His-tagged protein and then stained KIR2DL5/3T3 cells. […] (D) Flow cytometric analysis of PVR-Ig (open) or control hIg (shaded) binding on 3T3 cells expressing WT, DO-deleted, or D2-deleted KIR2DL5. Parental 3T3 cells were used as a negative control. (E) Flow cytometric analysis of PVR-Ig or control hIg (shaded) binding on 3T3 cells expressing different KIR2DL5 alleles. In A-E, data are representative of 2 independent experiments.
(§3) Fusion protein cell binding assays. PVR-Ig, CD112-Ig, or hIgG (R&D Systems) was incubated with corresponding 3T3 cells on ice for 45 minutes, followed by incubation with APC- or PE-conjugated anti-human IgG Fc antibody (1:100; clone HP6017, BioLegend) on ice for 30 minutes. Cells were then acquired on an LSR II flow cytometer (BD Biosciences). In the anti-KIR2DL5 mAb blocking assay, KIR2DL5/3T3 cells were preincubated with a serial concentration of anti-KIR2DL5 mAb F8B30 or mIgG1 on ice for 30 minutes. After washing, the cells were then incubated with 20 μg/mL PVR-Ig or hIgG on ice for 45 minutes, followed by incubation with APC anti-human IgG Fc antibody on ice for 30 minutes. […]

Assay [2] addresses T2, KIR2DL5A*005 allele expressed on 3T3 cells (human).
T2 construct: also called 2D5A*005
The assay is described as follows: flow cytometry, PVR-Ig on 3T3 cells expressing KIR2DL5 alleles. The protocol:
as §1, §2

The target of assay [3] is T3, KIR2DL4 expressed on 3T3 cells (human, UniProt Q99706 22-377).
T3 construct: whole, on cells; also called KIR2DL4/3T3
T3 sequence (Q99706 22-377): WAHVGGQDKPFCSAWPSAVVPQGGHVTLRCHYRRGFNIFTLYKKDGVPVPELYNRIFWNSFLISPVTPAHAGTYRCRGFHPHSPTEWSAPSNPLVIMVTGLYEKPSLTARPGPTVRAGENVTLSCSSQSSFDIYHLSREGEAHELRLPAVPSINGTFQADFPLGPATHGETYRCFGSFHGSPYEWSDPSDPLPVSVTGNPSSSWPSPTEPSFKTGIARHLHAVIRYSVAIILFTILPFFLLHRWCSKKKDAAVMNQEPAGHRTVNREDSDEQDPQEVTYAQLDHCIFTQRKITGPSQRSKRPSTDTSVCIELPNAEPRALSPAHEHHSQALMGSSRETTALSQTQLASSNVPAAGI
The assay is described as follows: flow cytometry, PVR-Ig titrated on KIR2DL4/3T3. How it is done: Specifically, a cell-based binding assay was performed by incubating PVR-Ig fusion protein with KIR2DL5- or KIR2DL4-expressing 3T3 cells. Conversely, KIR2DL5 was selectively bound by PVR, but not by CD112 (also known as nectin-2), another ligand for TIGIT and DNAM-1 in the nectin/nectin-like family (FIG. 10A). Furthermore, anti-KIR2DL5 mAb F8B30 blocked KIR2DL5-PVR interaction (EC₅₀=0.095 μM) (FIG. 10B). The specificity of KIR2DL5 binding to PVR was also evidenced by an intercellular interaction assay, in which 3T3 cells expressing PVR interacted with 3T3 cells expressing KIR2DL5, but not with cells expressing KIR3DL3 (FIG. 18B), a newly identified inhibitory receptor of HHLA2 (Zang, 2022; Wei 2021; Bhatt 2021).
as §3

With B1, the binding result with PVR-Ig fusion protein is given as “no binding”.
On to B2, for which, in assay [1], the binding result is “no binding”.
With B3, the binding result in assay [2] is given as “no binding”; in assay [3], “no binding (tested: 1.28 µM)”.

For the origin of these results see US20250019435A1 (ALBERT EINSTEIN COLLEGE OF MEDICINE, published 2025).
